Experimental data reported in patent US20220204603A1 (PHARMABCINE, published 2022).

Biological target: T1, biotinylated human Ang2 protein (human, UniProt O15123 19-496, limits assumed, biotinylated (sites not given))
T1 construct: also called hAng2
T1 sequence (looked up): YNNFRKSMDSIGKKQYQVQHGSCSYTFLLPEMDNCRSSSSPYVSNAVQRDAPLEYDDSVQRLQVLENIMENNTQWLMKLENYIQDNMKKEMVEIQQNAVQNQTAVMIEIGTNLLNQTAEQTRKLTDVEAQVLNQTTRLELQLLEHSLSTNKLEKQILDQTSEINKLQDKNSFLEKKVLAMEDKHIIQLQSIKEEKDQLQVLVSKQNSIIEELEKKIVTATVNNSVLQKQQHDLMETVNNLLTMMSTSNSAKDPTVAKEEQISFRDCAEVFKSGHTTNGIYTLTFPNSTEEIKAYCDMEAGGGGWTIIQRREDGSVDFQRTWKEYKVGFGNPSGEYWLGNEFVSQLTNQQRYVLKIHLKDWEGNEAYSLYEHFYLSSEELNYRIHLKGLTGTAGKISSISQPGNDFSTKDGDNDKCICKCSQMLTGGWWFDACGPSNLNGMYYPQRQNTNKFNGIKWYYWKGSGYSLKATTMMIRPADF
Assay: competition ELISA: antibody preincubated with biotinylated hAng2, binding to coated integrin α3/β1
Description: 1 μg/ml (100 μl per well) of a human Ti32-Fc (R&D Systems, 313-TI) or mouse Tie2-Fc (R&D Systems, 762-T2-100) solution, an integrin α3/β1 solution (R&D systems, 2840-A3-050), or an integrin α5/β1 solution (R&D systems, 3230-A5-050) was added to a 96-well immunoplate (Nunc, US) and then allowed to stand overnight at 4° C. for adsorption. The next day, the plate was washed four times with PBS containing 0.05% Tween-20 (hereinafter, referred to as PBST), and 200 μl of a 2% BSA/PBST solution was added to each well and then allowed to stand at room temperature for 1 hour to perform blocking. Anti-Ang2 candidate antibodies were serially diluted 4-fold at a maximum of 1000 nM, and biotinylated human Ang2 protein was made to a final concentration of 100 ng/mL or 625 ng/mL, followed by previous binding at room temperature for 1 hour. […] The plate was washed three times with PBST, 100 μl of HRP-conjugated streptavidin (R&D Systems, DY998) diluted to 1:200 was added to allow a reaction to occur at room temperature for 1 hour, thereby inducing binding, and the plate was washed four times with PBST, followed by color development using 100 μl of a TMB substrate reagent. The color development reaction was stopped by adding 50 μl of 2N H₂SO₄, and a Sunrise microplate reader (TECAN, CH) was used to measure specific absorbance OD₄₅₀ (FIGS. 4 and 5).

Binder | IC50 [nM]
No. 3 anti-Ang2 antibody (IgG) (antibody, V domains shown, IgG form: VH cloned into Invivogen pfusess-hchg1 (heavy chain constant region), VL into Invivogen pfuse2ss-hclk (light chain constant region); Expressed in Expi293F, purified on Protein A; also called 1D10) VH: QMQLVQSGGGLVQPGRSLKLSCAASGFSFDDYAMHWVRQAPGKGLEWVATIKDDGSQTYYVDSVKGRFTISRDNAKSSLFLQMNSLRAEDTAVYYCTTEGLMNGLHFDMWGQGTMVTVSS VL: LVLTQPPSVSGAPGQGVTISCTGSSSNIGAGYDVHWYQQFPGTAPKLLISGNNNRPSGLPDRFSGSKSGTSASLAITGLQAEDEADYYCQSYDSRLGVVFGGGTKLTVLG | 2.5
No. 4 anti-Ang2 antibody (IgG) (antibody, V domains shown, IgG form: VH cloned into Invivogen pfusess-hchg1, VL into Invivogen pfuse2ss-hclk; also called 2D8) VH: QVQLVESGAEVKRPGESLRISCKTSGYSFTSYWIHWVRQMPGKELEWMGSIYPGNSDTRYSPSFQGHVTISADSSSSTAYLQWSSLKASDTAMYYCTTEGLMNGLHFDMWGQGTMVTVSS VL: DIVMTQTPLSLPVTPGEPASISCRSSQSLLHSLGDNYLDWYLQKPGQSPQLLIYLGSKRAAGVPDRFSGSGSGTDFTLKISRVEAEDVGVYYCMQSLQTPPYTFGQGTKLEIKR | 2.42
No. 8 anti-Ang2 antibody (IgG) (antibody, V domains shown, IgG form: VH cloned into Invivogen pfusess-hchg1, VL into Invivogen pfuse2ss-hclk; also called 3A10) VH: QVQLVESGGGLVKPGGSLRLSCAASGFTFSSYSMNWVRQAPGKGLEWVSSISASDGATYYADSVRGRFTISRDNSRSTLYLQMNSLRAEDTAVYYCAKILAGYSGPMGGMDVWGQGTTVTVSS VL: DIQMTQSPSSLSASVGDRVTITCRASRDISNYLAWYQQKPGKAPKSLIYGASNLQSGVSSQFSGSGSGTDFTLTINSLQPEDSATYYCQQYYSYPLTFGGGTKVDIKR | 4.68
No. 41 anti-Ang2 antibody (IgG) (antibody, V domains shown, IgG form: VH cloned into Invivogen pfusess-hchg1, VL into Invivogen pfuse2ss-hclk; also called 2B2) VH: QVQLVESGGGLVQPGGSLRLSCEASGFAFGRYEMNWVRQAPGKGLEWIAYIDTGGGAKVYADSVKGRFTISRDDSKNSLYLQMNSLRAEDTAVYYCTTEGLMNGLHFDMWGQGTMITVSS VL: DIQMTQSPSTLSASVGDRVAITCRASQAISTWLAWYQQKPGKAPKLLIYTASTLESGVPSRFSGSGSGTDFTLTINSLQPDDFATYYCQQLNSYPYTFGGGTKVEIKR | 2.43
No. 46 anti-Ang2 antibody (IgG) (antibody, V domains shown, IgG form: VH cloned into Invivogen pfusess-hchg1, VL into Invivogen pfuse2ss-hclk; also called 3C6) VH: QVQLVESGGGLVQPGRSLRLSCAASGFTFDDCAMHWVRQAPGKGLEWVSGISGNSKNVAYADSVKGRFSISRDDAKNSLYLQMNSLRAEDTAVYYCARDPAYSQFDYWGQGTLITVSS VL: QSALTQPPSLSATPGQRVTISCSGSSSNVGGYPVNWYQQVPGAAPKLLMYTDYKRPSGVPDRFFGSKSGTSASLAISGLQSEDEADYYCATWDDNLNGYVFGTGTKVTVLG | 4.39
